# Experiments:
# [1] = molecular target: RIM1_C2B (rat); experiment: SEC-MALS
# [2] = molecular target: interface II mutations (CC2N and C2B variants, ITC); experiment: ITC
# [3] = molecular target: liprin-α2_CC2N E380R (human) (UniProt O75334); experiment: ITC
# liprin-α2_CC2N E380R (human), sequence (O75334 300-404 E380R): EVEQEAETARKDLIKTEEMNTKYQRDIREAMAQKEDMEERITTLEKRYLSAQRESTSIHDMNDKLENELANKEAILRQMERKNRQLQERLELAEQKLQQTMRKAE
substance,measurement,setting,value
RIM1_C2B (domain or fragment),stoichiometry N,[1],2
same,fold decrease in binding affinity,[2],5 fold
same,fold decrease in binding affinity,[3],2 fold

# — doi:10.1101/2024.08.29.610253
